T1: recombinant heparanase 8 kDa/50 kDa heterodimer (baculovirus, insect cell expressed) (human, UniProt Q9Y251 36-109; Q9Y251 158-543)
T1 construct: domain: 8 kDa subunit;domain: 50 kDa subunit; Amplified from a mammary gland cDNA library; In one screening ELISA it was biotinylated; also called 8/50 heterodimer protein; purified recombinant heparanase
T1 sequence 1: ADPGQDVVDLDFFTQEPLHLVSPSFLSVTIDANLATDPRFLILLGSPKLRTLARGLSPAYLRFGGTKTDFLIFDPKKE
T1 sequence 2: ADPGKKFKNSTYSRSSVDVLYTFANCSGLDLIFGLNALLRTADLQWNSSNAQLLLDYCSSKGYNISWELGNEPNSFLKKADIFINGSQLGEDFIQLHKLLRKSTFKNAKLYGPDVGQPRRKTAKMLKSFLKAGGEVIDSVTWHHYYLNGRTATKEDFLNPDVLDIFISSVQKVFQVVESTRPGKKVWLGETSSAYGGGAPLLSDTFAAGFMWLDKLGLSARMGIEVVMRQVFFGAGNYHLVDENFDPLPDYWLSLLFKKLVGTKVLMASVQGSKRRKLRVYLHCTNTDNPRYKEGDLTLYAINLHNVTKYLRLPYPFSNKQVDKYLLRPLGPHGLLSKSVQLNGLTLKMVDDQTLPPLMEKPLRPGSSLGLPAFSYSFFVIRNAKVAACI


Legend:
[1] = target: T1, recombinant heparanase 8 kDa/50 kDa …; test: ELISA on coated recombinant heparanase and on biotin-heparanase captured by streptavidin; hybridoma supernatants
Method: To select KM mice producing antibodies that bound heparanase, sera from immunized mice was tested by ELISA as described by Fishwild, D. et al. (1996). Briefly, microtiter plates were coated with purified recombinant heparanase from baculovirus at 1-2 μg /ml in PBS, 50 μl/wells incubated 4° C. overnight then blocked with 200 μl/well of 5% chicken serum in PBS/Tween (0.05%). Dilutions of plasma from heparanase-immunized mice were added to each well and incubated for 1-2 hours at ambient temperature. The plates were washed with PBS/Tween and then incubated with a goat-anti-human IgG Fc polyclonal antibody conjugated with horseradish peroxidase (HRP) for 1 hour at room temperature. After washing, the plates were developed with ABTS substrate (Sigma, A-1 888, 0.22 mg/ml) and analyzed by spectrophotometer at OD 415-495. Mice that developed the highest titers of anti-heparanase antibodies were used for fusions. Fusions were performed as described above and hybridoma supernatants were tested for anti-heparanase activity by ELISA. In order to select antibodies that bind to heparanase enzyme, an ELISA assay as described above and a biotinylated ELISA as described above with following modifications were applied. Briefly, ELISA plates were coated with streptavidin (Sigma catalog number: S-4762) at 1 μg/ml in PBS, 50 ul/well. After overnight incubation at 4° C., the plates were blocked with 200 μl/well of 5% chicken serum in PBS/Tween (0.05%). The plates were then washed with PBS/Tween three times. Biotin-heparanase was added to the plates at 1 μg/ml in PBS, 50 ul/well and then incubated for 1 hour at room temperature. 50 ul/well of the supernatants were then added to the plates and incubated for 1-2 hours at room temperature. The rest of the procedures were exactly the same as described above. Hybridomas secreting a monoclonal antibody that bound with high avidity to heparanase were selected for further characterization for enzymatic, motility and angiogenesis activities.

[2] = target: T1, recombinant heparanase 8 kDa/50 kDa …; test: competition binding format

binding result [1]	binding result [2]	Binder
binds	–	human monoclonal antibody 5G10 (antibody, V domains shown, Human IgG kappa from a KM mouse hybridoma; subclass not reported) VH: QVQLVQSGAEVKKPGASVKVSCKVSGYTLTELSMHWVRQAPGKGLEWMGGFDPEDGETIYAQKFQGRVTMTEDTSTDTAYMELSSLRSEDTAVYYCATESLVRYFDWLSHFDYWGQGTLVTVSS VL: DIQMTQSPSSLSASVGDRVTITCRASQGISSWLAWYQQKPEKAPKSLIYAASSLQSGVPSRFSGSGSGTDFTLTISSLQPEDFATYYCQQYNSYPYTFGQGTKLEIK
binds	–	human monoclonal antibody 13B2 (antibody, V domains shown, Human IgG kappa from a KM mouse hybridoma; subclass not reported) VH: EVQLVESGGGLVQPGGSLRLSCAASGFTFSSYWMSWVRQAPGKGLEWVASIYQDGSEKYYVDSVKGRFTISRDNAKNSLYLQMNSLRAEDTAMYYCARELDWGWDYWGQGTLVTVSS VL: AIQLTQSPSSLSASVGDRVTITCRASQGISSALAWYQQKPGKAPKLLIYDASSLESGVPSRFSGSGSGTDFTLTISSLQPEDFATYYCQQFNSYPITFGQGTRLEIK
binds	–	human monoclonal antibody 1E7 (antibody, V domains shown, Human IgG kappa from a KM mouse hybridoma; subclass not reported) VH: EVQLVESGGGLVQPGGSLRLSCAASGFTFSSYWMSWVRQAPGKGLEWVASIYQDGSEKYYVDSVKGRFTISRDNAKNSLYLQMNSLRAEDTAVYYCARELDWGWDYWGQGTLVTVSS VL: AIQLTQSPSSLSASVGDRVTITCRASQGISSALAWYQQKPGKAPKLLIYDASSLESGVPSRFSGSGSGTDFTLTISSLQPEDFATYYCQQFNSYPITFGQGTRLEIK
binds	–	human monoclonal antibody 2H8 (antibody, V domains shown, Human IgG kappa from a KM mouse hybridoma; subclass not reported) VH: QVQLVQSGAEVKKPGASVKVSCKVSGYTLTELSMHWVRQAPGKGLEWMGGFDPEDGETIYAQKFQDRVTMTEDTSTDTAYMELSSLRSEDTAVYYCTTESLVRYFDWLSHFDYWGQGTLVTVSS VL: DIQMTQSPSSLSASVGDRVTITCRASQGISSWLAWYQQKPEKAPKSLIYAASSLQSGVPSRFSGSGSGTDFTLTISSLQPEDFATYYCQQYNSYPYTFGQGTKLEIK
–	binds	human monoclonal antibody 22D9 (antibody, V domains shown, Fully human IgG with kappa light chain from a KM mouse hybridoma, purified by Protein A) VH: QVQLVQSGAEVKKPGASVKVSCKVSGYTLTELSMHWVRQAPGKGLEWMGGFDPEDGETIYAQKFQGRVTMTEDTSTDTAYMELSSLRSDDTAVYYCATESLVRYFDWLSHFDYWGQGTLVTVSS VL: DIQMTQSPSSLSASVGDRVTITCRASQGISSWLAWYQQKPEKAPKSLIYAASSLQSGVPSRFSGSGSGTDFTLTISSLQPEDFATYYCQQYNSYPYTFGQGTKLEIK

Source: patent US20040170630A1 (published 2004)
